We go through two molecules from publication PMC8668096, “Investigating the role of the carbon storage regulator A (CsrA) in Leptospira spp”.

Data set [1] has as its target T1, rCsrA L. biflexa (Leptospira biflexa serovar Patoc, UniProt B0SQM8 1-79).
T1 sequence: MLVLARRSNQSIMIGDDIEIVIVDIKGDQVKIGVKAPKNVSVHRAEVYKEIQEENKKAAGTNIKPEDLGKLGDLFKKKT
The experiment in a line: EMSA; no interaction, 100-800 nM rCsrA, 1 nM RNA; 10 mM HEPES pH 7.3, 20 mM KCl, 1 mM MgCl2, 1 mM DTT (plus 10 mM DTT), 7.5% glycerol, 0.2 ug/uL yeast tRNA, 37 C 30 min; 10% native PAGE. Particulars: protein: recombinant; tags: N-terminal 6xHis (pRSET-C); chain copies: 2; label: 5' biotin.

The target of data set [2] is T1, rCsrA L. biflexa. The experiment in a line: EMSA; dose-dependent, 100-800 nM rCsrA, 1 nM RNA; 10 mM HEPES pH 7.3, 20 mM KCl, 1 mM MgCl2, 1 mM DTT (plus 10 mM DTT), 7.5% glycerol, 0.2 ug/uL yeast tRNA, 37 C 30 min; 10% native PAGE. The settings on record: protein: recombinant; tags: N-terminal 6xHis (pRSET-C); chain copies: 2; label: 5' biotin; hairpin (predicted, GGA-containing hexaloop).

Take UGGACACACAAAAGGGUGUGAC (structured_RNA) [LEPBIa_1872 Mut (GGA to AAA)]: the binding result in data set [1] was “no binding”.
With UGGACACACAGGAGGGUGUGAC (structured_RNA) [LEPBIa_1872 WT (flaB3 upstream)], the binding result in data set [2] is listed as “binds”.
